Laboratory results from the DeepSol protein solubility set.

Assay: soluble on expression in E. coli; label from the status in PepcDB or PDB records

Row | Sequence | soluble on expression in E. coli
1 | SETILEQQRRYHEEKERLMDVMAKEMLTKKSTLRDQINSDHRTRAMQDRYMEVSGNLRDLYDDKDGLRKEELNAISGPNEFAEFYNRLKQIKEFHRKHPNEICVPMSVEFEELLKARENPSEEAQNLVEFTDEEGYGRYLDLHDCYLKYINLKASEKLDYITYLSIFDQLFDIPKERKNAEYKRYLEMLLEYLQDYTDRVKPLQDQNELFGKIQAEFEKKWENGTFPGWPKETSSALTHAGAHLDLSAFSSWEELASLGLDRLKSALLALGLKCGGTLEERAQRLFSTKGKSLESLDTSLFAKNPKSKGTKRDTERNKDIAFLEAQIYEYVEILGEQRHLTHENVQRKQARTGEEREEEEEEQISESESEDEENEIIYNPKNLPLGWDGKPIPYWLYKLHGLNINYNCEICGNYTYRGPKAFQRHFAEWRHAHGMRCLGIPNTAHFANVTQIEDAVSLWAKLKLQKASERWQPDTEEEYEDSSGNVVNKKTYEDLKRQGLL | soluble
2 | MTKMSITVNQTVLHQLVKNVDGDSIKMESVLRDELLSITPEVEQMMLQLHQSYQNKAKAFGVFQEKSIFAQHLNRLLEQEIEFLGFSQYSTKLLADELGKYNFAESGTLILCQYNFLATDYLFIALLDSRHSMLVDEHLDIRRTEYLDITQFDIAARINLTDLQVNANSNRYLTFIKGRVGRKISDFFMDFLGAEEGLNPQVQNQCLLQAVSDYCDQGELNKEQTQAVKKQVFEYCKGQLSNGNNIELRELSDSLPTLNEQPFVVFTEKQNYGLEESIPPIRSTLKSLTKFSGSGKGVTLSFDAELLNTRIQWDPMTDTLTIKGLPPNLKDQLQKALKSENLEHHHHHH | soluble
3 | MNVAIIGATGYSGAELFRLLHGHPHVSRCDVFSSSQDGVHVSESFPHVGSVDGAVLHKLEIEALSRYDAVFFATPPGVSGEWAPALVDRGVKVIDLSGDFRLKDGAVYEQWYGRQTAPAEYLQKAVYGLTEWNREAVREAVLLSNPGCYPTATLLGLAPLVKEGLIKEDSIIVDAKSGVSGAGRKAGLGTHFSEVNENVKIYKVNVHQHIPEIEQTLQTWNEAMEPITFSTHLIPMTRGIMATIYAKAKQSISPNDLVDLYKTSYEGSPFVRIRQLGQFPATKEVYGSNYCDIGLAYDERTGRVTVVSVIDNLMKGAAGQAVQNFNLMMGWDEAEGLQSLPIYP | not soluble
4 | MSLAANMYRVGDYVYFENSSSNPYLIRRIEELNKTASGNVEAKVVCFYRRRDISNTLIMLADKHAKEIEEESETTVEADLTDKQKHQLKHRELFLSRQYESLPATHIRGKCSVALLNETESVLSYLDKEDTFFYSLVYDPSLKTLLADKGEIRVGPRYQADIPEMLLEGESDEREQSKLEVKVWDPNSPLTDRQIDQFLVVARAVGTFARALDCSSSVRQPSLHMSAAAASRDITLFHAMDTLYRHSYDLSSAISVLVPLGGPVLCRDEMEEWSASEASLFEEALEKYGKDFNDIRQDFLPWKSLTSIIEYYYMWKTTDRYVQQKRLKAAEAESKLKQVYIPTYSKPNPNQISTSNGKPGAVNGAVGTTFQPQNPLLGRACESCYATQSHQWYSWGPPNMQCRLCAICWLYWKKYGGLKMPTQSEEEKLSPSPTTEDPRVRSHVSRQAMQGMPVRNTGSPKSAVKTRQAFFLHTTYFTKFARQVCKNTLRLRQAARRPFVAINYAAIRAECKMLLNSEGHHHHHH | not soluble
5 | ENGRYEYIVIGSEAAGVGLVRELTAAGKKVLAVDKSKEKIELLEDEGFDAVIADPTDESFYRSLDLEGVSAVLITGSDDEFNLKILKALRSVSDVYAIVRVSSPKKKEEFEEAGANLVVLVADAVKQAFMDKIKKMETL | not soluble
6 | MSLEIKNVSKQIGDRKILDNISLTIDKGSLVVLIGSSGCGKTTTLKLINKLITPTSGEIFINGKSLAKENPIELRRNIGYVIQNNGLFPHLTIKENIELIPRLKKGKDVEKIEKTTLDLLNMVGLDPEIYLNKYPSELSGGQQQRVGFARAFATDAEIILMDEPFSALDPITRTSLQEELFNIQEELKKTIIFVTHDMDEALKIADKICIMNGGKIAQYDTPENILRNPANDFVRDFIGSDRVWNNPDFIKAKDIMIKNPVSVKGARTILQGIEIMRSNKVDSLLVIDKENVLKGIVTFKDIKITNEKSRALSEIMSENPLRVNEDDSLVDILTVMNENSVGFIPVVNSEEKLVGLITRSSLLSILSDQFLDMEVNIFEEGHHHHHH | soluble
7 | MVQSLNTKVDLVIDATAFTGLTDYGQIMIGDRGFEFYHAKDPRKFIQIPWEEVDYVLASVMFKGKWIPRYAIQTKKNGTYTFASKEPKRVLRAIREYVDPDHMVQSLSFFDVIKRGILSIGKKKK | not soluble
8 | MGSDKIHHHHHHMTAVKHAFTELPTIDIRDLAGDDLARRQAVADAIGRAAREVGFFYITGHGIDPALIAGVREAAKQIFALPMEEKMNYYIGHSKSHKGYVPEGEEIYGSGKPDHKEAFDIGFQAADDHPLVLAGTPLIGANEWPDLPDFRARVLAYYDAVFALGHRLFDAFALALGLPEGYFKPMVTCPPAKLRLIHYPFDASVEDVPGIGAHTDYECFTLLLADQPGLEVLNEESVWIDAPPVKNAAGEEAFVINIGDMLEVLSAGTFVATAHRVRKVPQERYSFPLFFACDYHTLIRPLPTFLAAGEAGEYQELSIGEHMWSQALQTYRYLREKVNRGELQLPERARGTNTFGHLKKQAQQKNP | not soluble
9 | MYKVLRKERLTPKAVLLEVQDERAKLVKPGQYALVQANEESEPIPLSFLDVKESSYTFLVEVGGRATLEIAELVEEKIQFIEAPCGSPFPVKNYGKVLLISKNWGVAPLINIGRALKEESNEIYFVHVAEDEERVFLTKEASEISEEFLLFTEDGSLGEEGNSEWALGYFIENFGKPDLIVSAGSNLDSQMINRFAEERNIPHIAMVNAHILDANGLCLACRVLVEGQEKLACIDGPWFDASKVDWDYAIQKEAFYKEEEEKALKTFLRELQRLKARGR | not soluble
10 | MKAFSSYDEKPPAPPIRFSSSATRENQVVGLKPLPKEPEATKKKKTMPNPFMKKNKDKKEASEKPVISRPSNFEHTIHVGYDPKTGEFTGMPEAWARLLTDSQISKQEQQQNPQAVLDALKYYTQGESSGQKWLQYDMNDAPSRTPSYGLKPQPYSTSSLPYHGNKIQDPRKMNPMTTSTSSAGYNSKQGVPPTTFSVNENRSSMPPSYAPPPVPHGETPADIVPPAIPDRPARTLSIYTKPKEEEEKIPDLSKGQFGVQARGQKAKKKMTDAEVLTKLRTIVSIGNPDRKYRKVDKIGSGASGSVYTAIEISTEAEVAIKQMNLKDQPKKELIINEILVMRENKHANIVNYLDSYLVCDELWVVMEYLAGGSLTDVVTECQMEDGIIAAVCREVLQALEFLHSRHVIHRDIKSDNILLGMDGSVKLTDFGFCAQLSPEQRKRTTMVGTPYWMAPEVVTRKQYGPKVDVWSLGIMAIEMVEGEPPYLNENPLRAIYLIATNGKPDFPGRDSMTLLFKDFVDSALEVQVENRWSASQLLTHPFLRCAKPLASLYYLIVAAKKSIAEASNS | not soluble
11 | RAPDLAGVPDCLVIVGGSMAAVKAPTALRRLREGGASTAVIATRAALAFITPLSLATAGNCEVATDETWFAPQPIAQHLSLARARVTVVLGASAELLAAAAHGHADTLATATLLSAEGQVLWVPAMNERMWLHPAVQANAERLRGWGHLFLGPETGAFGTPGEGSGTGRMAEPEAIAARALALLNEQDAEAEAAPQDLAGLKVV | not soluble
12 | MSICTRKFINKLGFPNFGGESVQIAISGGKGWNWKIYSRHKSCSKMGVKRTLADLDVEAPNDHLLLGVSLANEEPVYQFMPHFDYLKCIKRRKCAKVCEEHAIVTLKDGTPFLMPTLCSGCRACEIVCPVPGAIREMAGDPLEHHHHHH | not soluble
13 | SRAMPASLSTAALRSDNVSPVDPLGVQREFDHYVSVLRDRLGLQVVMLPADEELPDCVFVEDTAVVCGSTALITRPGAPSRRSETVAMKGALTELGLNIVEMNDESATMDGGDVLFTGKEFFVGLSKRTNQRGAEILANTFKDYAVSTIPVEEGLHLKSFCSMAGPNLIAIGSSDAAQKALKVIQQMSDCKYEKLTVPDDRAANCVYMNLPGKGDVLLHCTPEVFPESAKVFERLKSHMLIPVSNQEKMKVDGALTCLSVLLRI | soluble
